Results taken from patent publication US20260242419A1, “A CYCLIC PEPTIDE FOR TRAPPING INTERLEUKIN-1 BETA” (Merck Sharp & Dohme LLC, priority 2023, published 2026).
Starred links: 1 amine or outer side, 2 acyl side, 3 side chain; linkers in the order of their positions; H or OH if unused. Non-standard residues stand in square brackets, D forms with d. TyrEtNAc = (2S)-3-[4-(2-acetamidoethoxy)phenyl]-2-amino-propanoic acid, CC(=O)NCCOc1ccc(C[C@H](N[*:1])C(=O)[*:2])cc1; dProc3CH24Pal = (2R,3S)-3-(4-pyridylmethyl)pyrrolidine-2-carboxylic acid, O=C([C@H]1[C@@H](Cc2ccncc2)CCN1[*:1])[*:2]; dPro(4R-(4-pyridylmethyl)) = O=C(O)[C@H]1C[C@@H](Cc2ccncc2)CN1; Trp(βS-Me,4-F) = C[C@@H](c1c[nH]c2cccc(F)c12)[C@H](N)C(=O)O; Bip(4'-CONH2) = NC(=O)c1ccc(-c2ccc(C[C@H](N)C(=O)O)cc2)cc1; Bip(4'-COOH) = N[C@@H](Cc1ccc(-c2ccc(C(=O)O)cc2)cc1)C(=O)O; Ala(1-bicyclo(1.1.1)pentyl) = N[C@@H](CC12CC(C1)C2)C(=O)O; dPro(3S-(4-F-Bn)) = O=C(O)[C@@H]1NCC[C@@H]1Cc1ccc(F)cc1; Ala(pyrimidin-5-yl) = N[C@@H](Cc1cncnc1)C(=O)O; Phe(4-CONH2) = NC(=O)c1ccc(C[C@H](N)C(=O)O)cc1; Phe(4-COOH) = N[C@@H](Cc1ccc(C(=O)O)cc1)C(=O)O; Pro(cis-4-F) = O=C(O)[C@@H]1C[C@H](F)CN1; Ala(4-THP) = N[C@@H](CC1CCOCC1)C(=O)O; hTyr = N[C@@H](CCc1ccc(O)cc1)C(=O)O; cisHyp = O=C(O)[C@@H]1C[C@H](O)CN1; d(αMeD) = C[C@@](N)(CC(=O)O)C(=O)O; d(αMeN) = C[C@@](N)(CC(N)=O)C(=O)O; 4Pal = N[C@@H](Cc1ccncc1)C(=O)O; aThr = C[C@H](O)[C@H](N)C(=O)O; αMeD = C[C@](N)(CC(=O)O)C(=O)O; d(αMeS) = C[C@@](N)(CO)C(=O)O; NMeDab = CN[C@@H](CCN)C(=O)O; Dab = NCC[C@H](N)C(=O)O; Aib = CC(C)(N)C(=O)O; Sar = CNCC(=O)O

Molecular target: Recombinant human IL-1β (BioLegend 579404) (human, UniProt P01584 117-269)
Assay: cell-based or functional assay

Binder | MRC5 IC50
cyclo([Bip(4'-COOH)][4Pal][Phe(4-COOH)]G[cisHyp][Trp(βS-Me,4-F)][Aib]SW[αMeD][Ala(4-THP)]Q[Dab][Sar][dPro(4R-(4-pyridylmethyl))]) (ring closure inferred; not fully specified (bridges); printed as Bip4CO2H-4Pal-Phe4COOH-G-Proc4OH-SbMeW4F-Aib-S-W-aMeD-AlaTHP4-Q-Dab-Sar-dProc4CH24Pal, cyclic (macrolactam)) [SEQ ID NO: 210] | 0.029 nM
cyclo([Bip(4'-COOH)][4Pal][Phe(4-COOH)]G[Pro(cis-4-F)][Trp(βS-Me,4-F)][Aib]SW[Aib][Ala(pyrimidin-5-yl)]Q[Dab][Sar][dPro(4R-(4-pyridylmethyl))]) (ring closure inferred; not fully specified (bridges); printed as Bip4CO2H-4Pal-Phe4COOH-G-Proc4F-SbMeW4F-Aib-S-W-Aib-PyrimAla-Q-Dab-Sar-dProc4CH24Pal, cyclic (macrolactam)) [SEQ ID NO: 205] | 0.028 nM
cyclo([Bip(4'-CONH2)][4Pal][Phe(4-COOH)]G[Pro(cis-4-F)][Trp(βS-Me,4-F)][Aib]SW[d(αMeS)][Ala(4-THP)]Q[Dab]G[dPro(4R-(4-pyridylmethyl))]) (ring closure inferred; not fully specified (bridges); printed as Bip4CONH2-4Pal-Phe4COOH-G-Proc4F-SbMeW4F-Aib-S-W-daMeS-AlaTHP4-Q-Dab-G-dProc4CH24Pal, cyclic (macrolactam)) [SEQ ID NO: 215] | 0.01 nM
cyclo([Bip(4'-COOH)][4Pal][Phe(4-COOH)]G[Pro(cis-4-F)][Trp(βS-Me,4-F)][Aib]SW[d(αMeS)][Ala(pyrimidin-5-yl)]Q[Dab][Sar][dPro(4R-(4-pyridylmethyl))]) (ring closure inferred; not fully specified (bridges); printed as Bip4CO2H-4Pal-Phe4COOH-G-Proc4F-SbMeW4F-Aib-S-W-daMeS-PyrimAla-Q-Dab-Sar-dProc4CH24Pal, cyclic (macrolactam)) [SEQ ID NO: 206] | 0.022 nM
cyclo([Bip(4'-COOH)][Ala(1-bicyclo(1.1.1)pentyl)][Phe(4-COOH)]G[Pro(cis-4-F)][Trp(βS-Me,4-F)][Aib]SW[d(αMeS)][Ala(4-THP)]Q[Dab]G[dPro(4R-(4-pyridylmethyl))]) (ring closure inferred; not fully specified (bridges); printed as Bip4CO2H-AlaPent-Phe4COOH-G-Proc4F-SbMeW4F-Aib-S-W-daMeS-AlaTHP4-Q-Dab-G-dProc4CH24Pal, cyclic (macrolactam)) [SEQ ID NO: 204] | 0.017 nM
cyclo([Bip(4'-COOH)][4Pal][Phe(4-COOH)]G[cisHyp][Trp(βS-Me,4-F)][Aib]SW[Aib][Ala(4-THP)]Q[Dab]G[dPro(4R-(4-pyridylmethyl))]) (ring closure inferred; not fully specified (bridges); printed as Bip4CO2H-4Pal-Phe4COOH-G-Proc4OH-SbMeW4F-Aib-S-W-Aib-AlaTHP4-Q-Dab-G-dProc4CH24Pal, cyclic (macrolactam)) [SEQ ID NO: 212] | 0.029 nM
cyclo([Bip(4'-COOH)][4Pal][Phe(4-COOH)]G[cisHyp][Trp(βS-Me,4-F)][Aib]SW[d(αMeS)][Ala(4-THP)]Q[Dab]G[dPro(4R-(4-pyridylmethyl))]) (ring closure inferred; not fully specified (bridges); printed as Bip4CO2H-4Pal-Phe4COOH-G-Proc4OH-SbMeW4F-Aib-S-W-daMeS-AlaTHP4-Q-Dab-G-dProc4CH24Pal, cyclic (macrolactam)) [SEQ ID NO: 213] | 0.021 nM
cyclo([TyrEtNAc][4Pal][Phe(4-CONH2)]G[Pro(cis-4-F)][Trp(βS-Me,4-F)][Aib]SW[Aib][Ala(pyrimidin-5-yl)]Q[NMeDab]G[dPro(4R-(4-pyridylmethyl))]) (ring closure inferred; not fully specified (bridges)) [SEQ ID NO: 218] | 0.036 nM
cyclo([Bip(4'-CONH2)][Ala(1-bicyclo(1.1.1)pentyl)][Phe(4-COOH)]G[Pro(cis-4-F)][Trp(βS-Me,4-F)][Aib]SW[d(αMeS)][Ala(4-THP)]Q[Dab]G[dPro(3S-(4-F-Bn))]) (ring closure inferred; not fully specified (bridges); printed as Bip4CONH2-AlaPent-Phe4COOH-G-Proc4F-SbMeW4F-Aib-S-W-daMeS-AlaTHP4-Q-Dab-G-dProc3Bn4F, cyclic (macrolactam)) [SEQ ID NO: 216] | 0.008 nM
cyclo([Bip(4'-CONH2)][Ala(1-bicyclo(1.1.1)pentyl)][Phe(4-COOH)]G[Pro(cis-4-F)][Trp(βS-Me,4-F)][Aib]SW[d(αMeN)][Ala(4-THP)]Q[Dab]G[dPro(3S-(4-F-Bn))]) (ring closure inferred; not fully specified (bridges); printed as Bip4CONH2-AlaPent-Phe4COOH-G-Proc4F-SbMeW4F-Aib-S-W-daMeN-AlaTHP4-Q-Dab-G-dProc3Bn4F, cyclic (macrolactam)) [SEQ ID NO: 217] | 0.028 nM
cyclo([Bip(4'-COOH)][4Pal][Phe(4-COOH)]G[cisHyp][Trp(βS-Me,4-F)][Aib]SW[αMeD][Ala(4-THP)]Q[Dab]G[dPro(4R-(4-pyridylmethyl))]) (ring closure inferred; not fully specified (bridges); printed as Bip4CO2H-4Pal-Phe4COOH-G-Proc4OH-SbMeW4F-Aib-S-W-aMeD-AlaTHP4-Q-Dab-G-dProc4CH24Pal, cyclic (macrolactam)) [SEQ ID NO: 201] | 0.019 nM
cyclo([Bip(4'-COOH)][4Pal][Phe(4-COOH)]G[cisHyp][Trp(βS-Me,4-F)][Aib]SW[d(αMeS)][Ala(4-THP)]Q[Dab][Sar][dPro(4R-(4-pyridylmethyl))]) (ring closure inferred; not fully specified (bridges); printed as Bip4CO2H-4Pal-Phe4COOH-G-Proc4OH-SbMeW4F-Aib-S-W-daMeS-AlaTHP4-Q-Dab-Sar-dProc4CH24Pal, cyclic (macrolactam)) [SEQ ID NO: 207] | 0.044 nM
cyclo([Bip(4'-COOH)][4Pal][Phe(4-COOH)]G[Pro(cis-4-F)][Trp(βS-Me,4-F)][Aib]SW[αMeD][Ala(4-THP)]Q[Dab][Sar][dPro(4R-(4-pyridylmethyl))]) (ring closure inferred; not fully specified (bridges); printed as Bip4CO2H-4Pal-Phe4COOH-G-Proc4F-SbMeW4F-Aib-S-W-aMeD-AlaTHP4-Q-Dab-Sar-dProc4CH24Pal, cyclic (macrolactam)) [SEQ ID NO: 208] | 0.015 nM
cyclo([Bip(4'-COOH)][4Pal][Phe(4-COOH)]G[Pro(cis-4-F)][Trp(βS-Me,4-F)][Aib]SW[Aib][Ala(4-THP)]Q[Dab]G[dPro(4R-(4-pyridylmethyl))]) (ring closure inferred; not fully specified (bridges); printed as Bip4CO2H-4Pal-Phe4COOH-G-Proc4F-SbMeW4F-Aib-S-W-Aib-AlaTHP4-Q-Dab-G-dProc4CH24Pal, cyclic (macrolactam)) [SEQ ID NO: 211] | 0.019 nM
cyclo([Bip(4'-COOH)][Ala(1-bicyclo(1.1.1)pentyl)][Phe(4-COOH)]G[Pro(cis-4-F)][Trp(βS-Me,4-F)][Aib]SW[αMeD]VQ[Dab]G[dPro(4R-(4-pyridylmethyl))]) (ring closure inferred; not fully specified (bridges); printed as Bip4CO2H-AlaPent-Phe4COOH-G-Proc4F-SbMeW4F-Aib-S-W-aMeD-V-Q-Dab-G-dProc4CH24Pal, cyclic (macrolactam)) [SEQ ID NO: 203] | 0.016 nM
cyclo([Bip(4'-COOH)][4Pal][Phe(4-COOH)]G[cisHyp][Trp(βS-Me,4-F)][Aib]SW[αMeD][Ala(pyrimidin-5-yl)]Q[Dab][Sar][dPro(4R-(4-pyridylmethyl))]) (ring closure inferred; not fully specified (bridges); printed as Bip4CO2H-4Pal-Phe4COOH-G-Proc4OH-SbMeW4F-Aib-S-W-aMeD-PyrimAla-Q-Dab-Sar-dProc4CH24Pal, cyclic (macrolactam)) [SEQ ID NO: 209] | 0.034 nM
cyclo([Bip(4'-COOH)][Ala(1-bicyclo(1.1.1)pentyl)][Phe(4-COOH)]G[Pro(cis-4-F)][Trp(βS-Me,4-F)][Aib]SW[αMeD][aThr]Q[Dab]G[dPro(4R-(4-pyridylmethyl))]) (ring closure inferred; not fully specified (bridges); printed as Bip4CO2H-AlaPent-Phe4COOH-G-Proc4F-SbMeW4F-Aib-S-W-aMeD-alT-Q-Dab-G-dProc4CH24Pal, cyclic (macrolactam)) [SEQ ID NO: 202] | 0.013 nM
cyclo([Bip(4'-COOH)][4Pal][Phe(4-COOH)]G[Pro(cis-4-F)][Trp(βS-Me,4-F)][Aib]SW[d(αMeD)][hTyr]Q[Dab]G[dProc3CH24Pal]) (ring closure inferred; not fully specified (bridges); printed as Bip4CO2H-4Pal-Phe4COOH-G-Proc4F-SbMeW4F-Aib-S-W-daMeD-hY-Q-Dab-G-dProc3CH24Pal, cyclic (macrolactam)) [SEQ ID NO: 219] | 0.018 nM
